# Test results published in patent US8629107B2, “Genes and proteins associated with angiogenesis and uses thereof” (National Jewish Health, priority 2005, dated 2014).
# B1: MAGP-2: secreted glycoprotein (25 kDa); stably expressed in MB114 cells by bicistronic retroviral transduction, Myc-His tagged (protein)
# chain: QRGDDVPETFTDDPNLVNDPSTDDTALADITPSTDDLAGDKNATAECRDEKFACTRLYSVHRPVRQCVHQSCFTSLRRMYIINNEICSRLVCKEHEAMKDELCRQMAGLPPRRLRRSNYFRLPPCENMNLQRPDGL
# modifications: left off: small tags and cut ends
# notes: secreted glycoprotein (25 kDa); stably expressed in MB114 cells by bicistronic retroviral transduction, Myc-His tagged
# B2: rMAGP-2: recombinant FLAG-tagged MAGP-2 purified from bacterial cell extracts by anti-FLAG chromatography (protein, UniProt Q9QZJ6 29-164, looked up)
# Microfibrillar-associated …: B1 chain
# modifications: FLAG tag
# notes: recombinant FLAG-tagged MAGP-2 purified from bacterial cell extracts by anti-FLAG chromatography
# What was measured:
# MB114 cells = assay: cell proliferation, [3H]thymidine incorporation assay; assay type: cell-based, murine; conditions: serum-starved MB114 cells stably expressing the transgene vs GFP, 24 h, 37° C.
# Protocol: (§1) The effect putative angiogenic agents had on MB114 cell activities were determined as follows: (i) cell proliferation using a [^3H]thymidine incorporation assay as described (Albig et al, 2006; Albig and Schiemann, 2004; Albig and Schiemann, 2005); (ii) cell invasion through Matrigel matrices using a modified Boyden-chamber assay as described (Albig et al, 2006; Albig and Schiemann, 2004; Albig and Schiemann, 2005); (iii) p38 MAPK phosphorylation using immunoblot analyses as described (Albig et al, 2006; Albig and Schiemann, 2004; Albig and Schiemann, 2005); (iv) angiogenic sprouting in rat tail collagen matrices as described (Albig et al, 2006; Albig and Schiemann, 2004); and (v) Hes1- and SBE-driven luciferase reporter gene assays as described (Albig et al, 2006; Albig and Schiemann, 2004; Albig and Schiemann, 2005).
# FIG. 1A show results from an experiment in which serum-starved MB114 cells, stably expressing either GFP or various putative angiogenic agents, were stimulated in the absence or presence of either bFGF (50 ng/ml) or EGF (10 ng/ml) for 24 h at 37° C. Differences in MB114 cell DNA synthesis was determined by measuring [^3H]thymidine incorporation into cellular DNA. […] In this experiment, invasion of MB114 cells expressing either GFP or various putative angiogenic agents through synthetic basement membranes was determined over 48 h using a modified Boyden-chamber assay.
# p38 MAPK = p38 MAPK phosphorylation by immunoblot analyses; assay type: cell-based, murine; conditions: serum-starved MB114 cells expressing the transgene; bFGF 50 ng/ml or EGF 10 ng/ml, 0-15 min
# Protocol: as §1
# The inventors' previous studies have associated stimulation of p38 MAPK activity with angiogenesis of MB114 cells and, conversely, inhibition of p38 MAPK activity with angiostasis of MB114 cells (Albig et al, 2006; Albig and Schiemann, 2004; Albig and Schiemann, 2005). […] The phosphorylation status of p38 MAPK was determined by immunoblotting whole cell lysates with phospho-specific p38 MAPK antibodies (p38-P). Differences in protein loading were monitored by reprobing stripped membranes with anti-p38 MAPK polyclonal antibodies (p38).
# [1] = system: Smad2/3-binding element (SBE); assay: SBE-driven luciferase reporter gene assay in MB114 cells; assay type: cell-based, murine; conditions: MAGP-2-expressing vs GFP-expressing MB114 cells; TGF-β1 0-5 ng/ml overnight
# Protocol: as §1
# To further investigate the impact of MAGP-2 on Notch1 processing and NICD accumulation, the inventors took advantage of recent findings showing that the ability of TGF-β to induce Hes1 promoter activity requires Smad3 to interact physically with NICD (Blokzijl et al, 2003), a reaction that is dispensable for canonical Smad3-mediated signaling stimulated by TGF-β (Blokzijl et al, 2003). […]
# MCA102 fibrosarcomas = MCA102 fibrosarcomas produced in mice; assay type: in vivo; conditions: unpublished observation
# [2] = system: vessel formation and infiltration into Matrigel plugs; assay: Matrigel plug implantation assay; assay type: in vivo, C57BL/6 mice; conditions: 1 μg/ml with bFGF 50 ng/ml vs bFGF alone; subcutaneous, C57BL/6 mice, day 10
# Protocol: The effect of MAGP-2 on vessel formation and infiltration into Matrigel plugs implanted into genetically normal mice was determined as described (Albig et al, 2006). Briefly, phenol red-free Matrigel (BD biosciences, Bedford, Mass.) was mixed with PBS (diluent), bFGF (50 or 300 ng/ml; R&D Systems, Minneapolis, Minn.), or recombinant MAGP-2 (1 μg/ml) together with bFGF (50 ng/ml), and the resulting mixtures were injected twice subcutaneously in the ventral groin area (400 μl/injection) of C57BL/6 mice. The mice were sacrificed 10 days post-implantation and the Matrigel plugs were dissected, fixed overnight in 10% formalin, and sectioned in the National Jewish Histology Laboratory. Afterward, Masson's trichrome staining was performed to visualize infiltrating vessels, which were quantified under a light microscope by determining the average number of vessels present in 5 random fields (200× magnification). Only those fields that contained at least one vessel in the area underlying the skin were tallied. Two mice were used per experimental condition and this experiment was performed three times in its entirety. All animal studies were performed according to protocol procedures approved by the Animal Care and Use Committee at National Jewish Medical and Research Center.
# The inventors tested this hypothesis by utilizing the Matrigel plug implantation assay, which monitors the ability of various angiogenic agents to alter vessel formation and infiltration into Matrigel plugs implanted subcutaneously into normal mice. […] MAGP-2 purity was monitored by coomassie staining, and by immunoblotting with anti-FLAG M2 monoclonal antibodies (FIG. 2A; right panel). rMAGP-2 (1 μg/ml) stimulated angiogenic sprouting of quiescent MB114 cell monolayers (FIG. 2A; left panel). […] Afterward, the Matrigel plugs were fixed, sectioned, and stained with Masson's trichrome to visualize infiltrating blood vessels (FIG. 2B; right panels; arrows denote blood vessels), which were quantified by manual counting under a light microscope. […]
molecule,measurement,setting,value
B1,proliferative response of MB114 cells to EGF ([3H]thymidine incorporation into cellular DNA),MB114 cells; EGF 10 ng/ml,significantly enhanced
same,proliferative response of MB114 cells to bFGF ([3H]thymidine incorporation into cellular DNA),MB114 cells; bFGF 50 ng/ml,significantly enhanced
same,p38 MAPK phosphorylation,p38 MAPK,significantly enhanced
same,TGF-β stimulation of SBE-luciferase activity,[1],no effect
same,growth of MCA102 fibrosarcomas produced in mice,MCA102 fibrosarcomas,significantly increase
same,vascularization of MCA102 fibrosarcomas produced in mice,MCA102 fibrosarcomas,significantly increase
B2,development and infiltration of vessels into Matrigel plugs,[2],significantly increased
